Experimental data reported in the nanobody polyreactivity screen of Harvey et al. (2022).

Test: yeast display, Sf9 membrane polyspecificity reagent, FACS + sequencing; frameworks hold sequencing errors
Outline: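 Galactose induction of a Saccharomyces cerevisiae BJ5465 synthetic nanobody display library ran 36–48 hours. The cells were then stained for 1 hour at 4 °C with 10% biotinylated, detergent-solubilized Sf9 membrane reagent, pulled down on streptavidin microbeads and FACS-sorted into low and high (top ~1%) gates on expression and reagent-binding fluorescence. Labels for polyreactivity follow the gate of origin.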

Sequence	polyreactivity (PSR sort gate)
QVQLVESGGGLVQAGGSLRLSCAASGFIFPYAMGWYRQAPGKEREMVAAISSTDGSTYYADSVKGRFTISRDNAKNTVYLQMNSLKPEDTAVYSCNAPFSFARYPSSWHYWDYYYWGQGTQVTVSS	low polyreactivity
QVQLVESGGGLVQAGGSLRLSCAASGFIFPYFAMGWYRQAPGKERELVAAISGSGGSTYYADSVKGRFTISRDNAKNTVYLQMNSLKPEDTAVYYCAASARRLNMGYWGQGTQVTVSS	high polyreactivity
QVQLVESGGGLVQAGGSLRLSCAASGFIFPYNAMGWYRQAPGKERELVAAITYRDGSTYYPDSVKGRFTISRDNANNTVYGQMNSLKPEDTAVYYCAADRYVYWDLYGYWGQGTQVTVSS	low polyreactivity
QVQLVESGGGLVQAGGSLRLSCAASGFIFPYYAMGWYRQAPGKERELVAAISARGGSTYYADSVKGRFTISRDNAKNTFYLQMNRLKPEDTAVYYCAAPYPRWTGKDYDYWGQGTQVTVSS	high polyreactivity
QVQLVESGGGLVQAGGSLRLSCAASGFIFPYYAMGWYRQAPGKERELVAAISSSGGRTYYADSVKGRFTISRDNAKNTVYLQMNSLKPEDTAVYYCNARPNPYLGYGYWGQGTQVTVSS	high polyreactivity
QVQLVESGGGLVQAGGSLRLSCAASGFIFQGNAMGWYRQAPGKEREFVAAISWSGGRTYYADSVKGRFTISRDNAKNTVYLQMNSLKPEDTAVYYCAVTPVRFASGGAWMDYWGQGTQVTVSS	high polyreactivity
QVQLVESGGGLVQAGGSLRLSCAASGFIFQRNAMGWYRQAPGKERELVAAIRGTGGSTYYADSVKGRFTISRDNAKNTVYLQMNSLKPEDTAVYYCNRLSSYHMDYWGQGTQVTVSS	high polyreactivity
QVQLVESGGGLVQAGGSLRLSCAASGFIFQRYAMGWYRQAPGKESELVAAISSSGGSTYYADSVKGRFTISRDNAKNTVYLQMNSLKPEDTAVNYCAARVPPRTLAYYYWGQGTQVTVSS	high polyreactivity
QVQLVESGGGLVQAGGSLRLSCAASGFIFQYYAMGWYRQAPGKERELVAAINWSGGSTYYADSVKGRFTISRDNAKNSVYLQMNSLKPEDTAVYYCAADEYTSGYEYWGQGTQVTVSS	high polyreactivity
QVQLVESGGGLVQAGGSLRLSCAASGFIFQYYAMGWYRQAPGKERELVAAITPSGTSTYYADSVKGRFTISRDNAKNTVYLQMNSLKPEDTAVYYCAVRYYFVDFHSTTGYPYSYDYWGQGTQVTVSS	low polyreactivity
QVQLVESGGGLVQAGGSLRLSCAASGFIFRDNAMGWSRQAPGKERELVAAISKSGGRTYYADSVKGRFTISRDNAKNTVYLQMNSLKPEETAVYYCAKASRYWSLYYWGQGSQVTVSS	high polyreactivity
QVQLVESGGGLVQAGGSLRLSCAASGFIFRDNAMGWYRPAPGKERELVAAISKSGGRTYYADSVKGRFTISRDNAKNTVYLQMNSLKPEDTAVYYCAKASRYWSLYYWGQGTQVTVSS	high polyreactivity
QVQLVESGGGLVQAGGSLRLSCAASGFIFRFNAMGWYIQAPGKSRELVAAISWSGSSTYYADSVKGRFTISRDNAKNTVYLQMTSLKPEDTAVYYCATSSLYYTIVKGDFYYWGQGTQVTVSS	high polyreactivity
QVQLVESGGGLVQAGGSLRLSCAASGFIFRFYAMGWYRQAPGKERELVATISKRGGTTYYADSVKGRFTISRDNAKNTVYLQMNSLKPEDTAVYYCAVRLYLEMDYWGQGTQVTVSS	high polyreactivity
QVQLVESGGGLVQAGGSLRLSCAASGFIFRGNAMGWYRQAPGKERELVAAISKSGGRTYYADSVKGRFTISRDNAKNTVYLQMNSLKPEDTAVYYCNVLRLGLGRESDSWGQGTQVTVSS	high polyreactivity
QVQLVESGGGLVQAGGSLRLSCAASGFIFRGNAMGWYRQAPGKERELVAAISKSGGRTYYADSVKGRFTISRDNAKNTVYLQMNSLKPEDTAVYYCNVLRMGLGRESDSWGQGTQVTVSA	high polyreactivity
QVQLVESGGGLVQAGGSLRLSCAASGFIFRGNAMGWYRQAPGKERELVASISRTGDTTYYADSVKGRFTISRDNAKNTVYLQMNSLKPEDTAVYYCARRSRVGYPLDSWGQGTQVTVSS	high polyreactivity
QVQLVESGGGLVQAGGSLRLSCAASGFIFRGYAMGLYRQAPGKERELVAAISKSGGSTYYADSVKGRFTISRDNAKNTVYLQMNSLKPEDTAVYYCATDILIDGFYYDYWGQGTQVTVSS	high polyreactivity
QVQLVESGGGLVQAGGSLRLSCAASGFIFRGYAMGWYRQAPGKERELVAAISRRGGSTYYADSVKGRFTISRDNAKNTVYLQMNSLKPEDTAVYYCNADTTPQGNVRDGYWGQGTQVTVSS	high polyreactivity
QVQLVESGGGLVQAGGSLRLSCAASGFIFRINAMGWYRQAPGKERELVAAISSSGGSTYYADSVKGRFTISRDNAKNTVYLQMNSLKPEDTAVYYCNAVGTGGYSSEYGYWGQGTQVTVSS	high polyreactivity
QVQLVESGGGLVQAGGSLRLSCAASGFIFRKYAMGWYRQAPGKERELVAAITASGGSTYYADSVKGRFTISRDNAKNTVYLQMNSLKPEDTAVYYCATDYHGAERWLKYDYWGQGTQVTVSS	high polyreactivity

Sequence	polyreactivity (PSR sort gate)
QVQLVESGGGLVQAGGSLRLSCAASGFIFRNYAMGWYRQAPGKERELVAGITSSGGRTYYADSVKGRFTISRDNAKNTVYLQMNSLKPEDTAVYYCNIDVLYYRYTSFSNRYYYWGQGTQVTVSS	high polyreactivity
QVQLVESGGGLVQAGGSLRLSCAASGFIFRPYVMGWYRQAPGKERELVAAISRSGSSTYYADSVKGRFTISRDNAKNTVYLQMNSLKPEDTAVYYCARRTSQEFDYWGQGTQVTVSS	high polyreactivity
QVQLVESGGGLVQAGGSLRLSCAASGFIFRQYVMGWYRQAPGKERELVAAISWRTTSTYYADSVKGRFTISRDNAKNTVYLQMNSLKPEDTAVYYCAAPQVWWGYYTRGVDYWGQGTQVTVSS	low polyreactivity
QVQLVESGGGLVQAGGSLRLSCAASGFIFRRNAMGWYRQAPGKERELVAAISTRGGITYYADSVKGRFTISRDNAKNTVYLQMNSLKPDDTAVYYCAVVFVWGWPGYYWGQGTQVTVSS	high polyreactivity
QVQLVESGGGLVQAGGSLRLSCAASGFIFRRNAMGWYRQAPGKERELVASIRSGGSTKYADSVKGRFTISRDNAKNTVYLQMTSLKPEDTAVYYCNADDPGYAVPWYWFKYDYWGQGTQVTVSS	low polyreactivity
QVQLVESGGGLVQAGGSLRLSCAASGFIFRRYAMGWYRQAPGKDRALVAAITIGGSTSYADSVKGRFTISRDNAKKTVYVQMNSLKPEDTAVYYCNAGSFSRKARRYDYWGQGTQVTVSS	high polyreactivity
QVQLVESGGGLVQAGGSLRLSCAASGFIFRRYAMGWYRQAPGKERELVAAIRWDDGNTYYADSVKGRFTISRDNAKNTVYLQMNSLKPEDTAVYYCNADKWSSTDDWLYDYWGQGTQVTVSS	low polyreactivity
QVQLVESGGGLVQAGGSLRLSCAASGFIFRRYAMGWYRQAPGKERELVAAISGSGGRTYYADSVKGRFTISRDNAKNTVYLQMNSLKPEDTAVYYCAADHGSLLYDYWGQGTQVTVSS	high polyreactivity
QVQLVESGGGLVQAGGSLRLSCAASGFIFRRYAMGWYRQAPGKERELVAAISYNVVSTYYADSVKGRFTISRDNAKNTVYLQLNSLKPEVTAVYYCNTASSYRSFRYNYWGQGTQVTVSS	high polyreactivity
QVQLVESGGGLVQAGGSLRLSCAASGFIFRRYAMGWYRQAPGKERELVAGISNRGGRTYYADSVKGRFTISRDNAKNTVYLQMNSLKPEDTAVYYCAADQKSGYRVSRYYVFYDYWGQGTQVTVSS	high polyreactivity
QVQLVESGGGLVQAGGSLRLSCAASGFIFRRYAMGWYRQAPGKERELVAIITSGVRTYSADSVKGRFTISRDNAKNTVYLQMNSLKPEDTAVYYCAARVKDYPEYDYWGQGTQVTVSS	low polyreactivity
QVQLVESGGGLVQAGGSLRLSCAASGFIFRRYVMGWYRQAPGKERELVAAISNGGGRTYYADSVKGRFTISRDNAKNTVYLQMNSLKPEDTAVYYCAAYPRGPLAPDYDYWGQGTQVTVSS	high polyreactivity
QVQLVESGGGLVQAGGSLRLSCAASGFIFRRYVMGWYRQAPGKERELVAAISRGGSTYYADSVKGRFTISRDNAKNTVYLQMNSLKPEDTAVYYCNTPGGFVGDDYDYWGQGTQVTVSS	high polyreactivity
QVQLVESGGGLVQAGGSLRLSCAASGFIFRSYAMGWYRQAPGKERELVAGISYRGGSTYYADSVKGRFTISRDNAKNTVYLQMNSLKPEDTAVYYCAATAWYNWYFGLDYWGQGTQVTVSS	high polyreactivity
QVQLVESGGGLVQAGGSLRLSCAASGFIFRVNALGGSRPAPGKERVLVAARISSSGSTYYADSVKGRFTISRDNAKNTVYLQMNSLKPEDTAVYYCAADPYYLQQFDYWGQGTQVTVSS	low polyreactivity
QVQLVESGGGLVQAGGSLRLSCAASGFIFRVNAMGWYRQAPGKERELVAAISRRGGSTYYADSVKGRFTISRDNAKNTVYLQMNSLKPEDTAVYYCAVKGASYPAYRGYDYWGQGTQVTVSS	high polyreactivity
QVQLVESGGGLVQAGGSLRLSCAASGFIFRVNAMGWYRQAPGKERELVAAISSSGTSTYYADSVKGRFTISRDNAKNTVYLQMNSLKPEDTAVYYCAARLFYRSAYGYWGQGTQVTVSS	high polyreactivity
QVQLVESGGGLVQAGGSLRLSCAASGFIFRVYAMGWYRQAPGKERELVAAISDSGGSTTYADSVKGRFTISRDNAKNTVYLQMNSLKPEDTAVYYCAADYDFFSLYLYDYWGQGTQVTVSS	low polyreactivity
QVQLVESGGGLVQAGGSLRLSCAASGFIFRWYAMGWYRQAPGKERELVASITRGGSTNYADSVKGRFTISRDNAKNTVYLQMNSLKPEDTAVYYCAAGWRRAAGIQYWYGYWGQGTQVTVSS	high polyreactivity
QVQLVESGGGLVQAGGSLRLSCAASGFIFRWYAMGWYRQEPGKERELVAAITWRGGSTYADSVKGRFTISRDNAKNTVYLQMNSLKPEVTAVYYCAAETHRRYDYWGQGTQVTVSS	high polyreactivity
